# Substitutions are numbered along the chain they refer to.
# B1: CHI9: Chalcone isomerase from Roseburia sp. OM02-15, access no. WP_118702262.1 (protein)
# chain: GEITYQPLRSLIYVDCVKEEYRHKLQHWLYYYHAPESIAKFEPWVTKYAFYNALPTPPQGERFGTYRMQLTEHYWMVNPMSQESLVNSLNEYFPIDAMIWQGTLPENAKEDGFMADGEAARASGGDNGCPPFIFAFLPIFWEQDLKGAGRTMVDGPNYRWQFLVSYPEGHKEDGDQWMMNEVLPAFAAMPEVTRMMTSKVKKEINNCHMDRCVEMWFDGPEEWYHCAVENAASFKKPEWAEYDNFPYLRPQFQFASLFLTDIATSDNLKQYRGYLPMR
# modifications: Roseburia sp. OM02-15
# B2: CHI4: Chalcone isomerase from Acetoanaerobium noterae, access no. WP_079589066.1 (protein, listed as Acetoanaerobium noterae)
# chain: ADFEFNPMRSLIYVDVVKEDYRHMLKHWLYRHHIPDSISQFGPYVTKYAFYPALPTPPEGDRFGTIRMQLTEHYWTVNPFTSNFKNKAFTEFFPIDILKWQGNIPDDSKVAALEGEEVVKLEGDDARASGGDNGCPPFIFAFVPICWEEDFKGSQRTVEDGPNYRWQFVMKYPEGVTMKEGDKWFYEEMIPKFKDMPDVLRILSSKIIQQVNGCPYHRVVEMWFNCPSAWYRSAVEKAKEIKKPSWAKYDVFPYLKPKFEIASLFLTDIAESDNYSQYRGYITMR
# B3: CHIera: Chalcone isomerase from Eubacterium ramulus (protein, listed as Eubacterium ramulus)
# chain: ADFKFEPMRSLIYVDCVSEDYRPKLQRWIYKVHIPDSISQFEPYVTKYAFYPSFPIPPQGDRFGYARMQLTEHHWLVSDLDPRLEIKAIAETFPMDVLVWQGQIPAAAHTDAQIDSDGDAGNAARKSNNAEGNPFIFAFLPMWWEKDLKGKGRTIEDGANYRFNMTIGFPEGVDKAEGEKWLFEKVVPILQAAPECTRVLASAVKKDINGCVMDWVLEIWFENQSGWYKVMVDDMKALEKPSWAQQDAFPFLKPYHNVCSAAVADYTPSNNLANYRGYITMR
# B4: CHI12: Chalcone isomerase from Holophaga foetida, access no. WP_005036737.1 (protein, listed as Holophaga foetida)
# chain: TVEFCPMRSLIYVGLSKEKYRHLLQNWLYRIHIPDSISQFGPYVTKYAFYNALPVPPEGERFGTIKMQLTEHYWQCNPFQQAVAVKTFKEVFPIDVLRWQGNMPDESDGAVELEGDEARSAKGGQGAKPFIFAFVPLWWEEDIKGKMRTIADGPNYRWQFVMKYPEGVSQEQGDKWFLEEVAPAFAAMPEVNRILSSKIIQNVNGCSFNRVVEMWFDGPDEWYAAAVTKAAALPKPTWAKQDKFPFLASDYEFASVFLTDYATSDNLSQYRGYITLR
# B5: CHI1: Chalcone isomerase from Fusibacter sp. 3D3, access no. WP_069876268.1 (protein)
# chain: SYVPEFKPMRSFILNNVRSDNDRPKAFRWLYKQHVPESISQFRPYCTKYATYHALPLVEGAEQFGTYNWIMTEHYWNFNIFQDKGLGHSRGLAFTEAYPHDFMEITCQPPSNTLRQSGWQGSAEGYHPIVFCFAPIFWENDFKGSERLTDDGANFRWLFFLSYPEGVTVEEGDQWFLETFAKEAAEMPEVIRFLSSRVMDSPRINPFDRIVELWFDDSEAWHNAMVKNGHLFTKPAWSKVDQFPFFEAYKDITGVFIMDRPDSDHLAQWQGYITTR
# modifications: Fusibacter sp. 3D3
# B6: CHI5: Chalcone isomerase from Parasporobacterium paucivorans, access no. WP_073993359.1 (protein)
# chain: GPEFQPMRSLIYVDCVKEEYRHRLQNWLYHYHVPDSISQFAPYVSKYCFYNALPTPPEGERFGTIRQQLTEHYWMVNPFTEHFKNKALTEYFPCDVLKWQGNIPDDDLEVNFEGDEARSKGGHNGCAPFIFAFLPLCWEEDFKGKERTIENGPNYRWNFVMKYPEGTSMEEGDKWFYEKMIPAFQEMPEVTRILTSKVIQSINGCAFHRVVEMWFDGPNAWYQAAVVKAKNIEKPSWASVDAFPYLQATFEFDGIFLTDYAASDNMSQYRGYLAMR
# modifications: Parasporobacterium paucivorans
# B7: CHI8: Chalcone isomerase from Roseburia sp., access no. SCJ10619.1 (protein, listed as Roseburia sp.)
# chain: RSLIYVDVAKEQYRVKLNHWLYAVHVPESISKFRPYVSQYAFYNALPVPPLGEQFGTVRMQLTEHYWQVNPMDVSMAVNVFTETFPTEVLIWQGNMPENAIALNYEGDEARSAKVENCNPFVFAFLPISWEEDLKGAGRTMADGPNYRWNFALHYPDGVSVETGDQWFYEKFVPAFLEIPEATRMVTSKIIKEINDCPMDRVVEIWFEGPDQWSAAMEKAKSIEPPEWAQEETFPYLKPYQNIMGVFVADNISSDNLNNHRGYITMR
# B8: CHI2: Chalcone isomerase from Tepidanaerobacter acetatoxydans, access no. WP_013779275.1 (protein)
# chain: DTEFKPMRSLIYVGVAKEEYRHKLKNWLYRYHIPDSISQFAPYVTKYAFYNALPVPPEGERFGAYNMQLTEHYWLINPMNPQLKIKAFTEFFPVDVLKWQGNIPDDADADSVNIEGDAARSSGGDNGMPPFIFAFIPFWWEEDFKGAGRTVEDGPNYRWQFLIQYPNGISLEEGDQWFYKKLVPAFKEMPEVNRFLTSRVIRDVNDCQFHRVIEMWFDGPEEWYRAAVEKGKSIERPHWATAEEFPYLKPKFQIASLFLTDIADSDNYSQYRGYITMR
# modifications: Tepidanaerobacter acetatoxydans
# B9: CHI6: Chalcone isomerase from Lachnoclostridium sp., access no. HCD45524.1 (protein, listed as Lachnoclostridium sp.)
# chain: GTEFDPMRSFIYVDVIKEEYRHKLQHWLYFHHIPESISQFEPYCTKYAFYNALPVPEGGERFGTARMQITEHSWLVNIMDPALKVKAFQEYMPIEALKWQGTVPETAGDVLMSGDDARCTGGNNGCMPFVFAFCPMWWEEDVKGAGRTLTEGANYRWNFALTYPEGISKEEGDKWLFEEVFPYFEANNCCTRILTSKVRQEINGCPMYRVVEMWFTGPTAWHHLAVETADKIKSPSWAKDGDVFPYLKSGFEIRGAFVTDYPTCDAYSQYRGYIPRR
# B10: CHIera Mut12: Chalcone isomerase variant 12 from Eubacterium ramulus, genetically engineered (protein, listed as Eubacterium ramulus)
# chain: MADFKFEPMRSLIYVDCVSEDYRPKLQRWIYKVHIPDSISKFEPYVTKYAFYPSFPIPPQGDRFGYARMQLTEHHWLVSPLDPRLEINAIAETFPMDVLVWQGQIPAAAHTDAQIDSDGDAARAARKSNNAEGNPFIFAFLPMWWEKDLKGKGRTIEDGANYRFNMTIGFPEGVDKAEGEKWLFEKVVPILQAAPECTRVLASAVKKDINGCVMDWVLEIWFENQSGWYKVMVDDMKALEKPSWAQQDAFPFLKPYHNVCSAAVADYTPSNNLANYRGYITMR
# B11: CHIera Mut14: Chalcone isomerase variant 14 from Eubacterium ramulus, genetically engineered (protein, listed as Eubacterium ramulus)
# chain: B10 chain with P80E, A122H
# Test: Specific activity of purified CHI, absorbance decrease at 384 nm, naringenin chalcone
# Format: biochemical
# Conditions: purified CHI in 50 mM PBS, 100 μM substrate, 25° C.
# Procedure: (§1) E. coli BL21 (DE3) cells containing one of the pET28b plasmids from Table 2 or Table 3 were used to inoculate 1 L LB medium at OD of 0.1. Cells were incubated at 37° C., 250 rpm until the OD reached 0.4-0.6 and induced by supplementing with 0.1 mM IPTG. After protein expression at 28° C., 250 rpm for 16 h, the cells were harvested by centrifugation at 4,000×g for 15 min. The harvested cells were lysed with 0.5 mg/mL lysozyme (Sigma-Aldrich), 0.4 U/mL Benzonase (Sigma-Aldrich) and BugBuster (Merck) at room temperature for 0.5 h to obtain a crude cell extract. The crude extract was centrifuged at 10,000×g for 30 min to remove the pellet. Recombinant proteins were purified by Ni-affinity chromatography (GE Healthcare). The supernatant of the crude extract was loaded on the column with 20 mM imidazole. The column was washed by 5 column volumes of 30 mM imidazole with 20 mM PBS (pH 7.4) and 500 mM NaCl. The target proteins were eluted by 150 mM imidazole with 20 mM PBS (pH 7.4) and 500 mM NaCl. Buffer exchange with 50 mM PBS (pH 7.5) was achieved by ultrafiltration with Amicon Ultra-15 (Merck). The activity of the respective purified enzyme was determined by measuring the absorbance decrease at 384 nm in the reaction mix (CHI in 50 mM PBS with 100 μM of either naringenin chalcone, hesperetin chalcone, eriodictyol chalcone, homoeriodictyol chalcone or 4-O-methyl butein at 25° C.).
row,Molecule,"Specific activity, Naringenin chalcone"
1,B1,22.7
2,B2,46.6
3,B3,270.0
4,B4,32.4
5,B5,21.3
6,B6,59.9
7,B7,73.5
8,B8,54.8
9,B9,16.8
10,B10,11.0
11,B11,29.5

# Test: Specific activity of purified CHI, absorbance decrease at 384 nm, hesperetin chalcone
# Format: biochemical
# Conditions: purified CHI in 50 mM PBS, 100 μM substrate, 25° C.
# Procedure: as §1
row,Molecule,"Specific activity, Hesperetin chalcone"
1,B1,43.0
2,B2,58.5
3,B3,31.5
4,B4,36.5
5,B5,16.7
6,B6,84.5
7,B7,19.2
8,B8,93.5
9,B9,3.3
10,B10,24.9
11,B11,4.5

# Test: Specific activity of purified CHI, absorbance decrease at 384 nm, eriodictyol chalcone
# Format: biochemical
# Conditions: purified CHI in 50 mM PBS, 100 μM substrate, 25° C.
# Procedure: as §1
row,Molecule,"Specific activity, Eriodictyol chalcone"
1,B1,69.7
2,B2,34.4
3,B3,90.7
4,B4,28.2
5,B5,18.2
6,B6,82.7
7,B7,33.9
8,B8,25.4
9,B9,17.0
10,B10,19.9
11,B11,27.2

# Test: Specific activity of purified CHI, absorbance decrease at 384 nm, 4-O-methyl butein
# Format: biochemical
# Conditions: purified CHI in 50 mM PBS, 100 μM substrate, 25° C.
# Procedure: as §1
row,Molecule,"Specific activity, 4-O-methyl butein"
1,B1,0.4
2,B2,0.4
3,B3,0.1
4,B4,0.2
5,B5,0.2
6,B6,0.4
7,B7,1.2
8,B8,0.8
9,B9,0.1

# Test: Specific activity of purified CHI, absorbance decrease at 384 nm, homoeriodictyol chalcone
# Format: biochemical
# Conditions: purified CHI in 50 mM PBS, 100 μM substrate, 25° C.
# Procedure: as §1
row,Molecule,"Specific activity, Homoeriodctiol chalcone"
1,B1,10.4
2,B2,15.2
3,B3,44.5
4,B5,11.3
5,B6,19.7
6,B7,22.8
7,B8,19.9
8,B9,8.1
9,B10,9.8
10,B11,15.6
